Assays:
[1] = target: T1, human BTLA expressed on CHO cells (human, UniProt Q7Z6A9 31-289); assay: flow cytometry, antibody titrated on CHO cells expressing human BTLA, PE-anti-huFc detection, FL2 GMFI
T1 construct: also called CHO/huBTLA; hBTLA

cynomolgus BTLA = target: T2, cynomolgus BTLA (cynomolgus, UniProt A0A2K5W7M7 31-289); assay: flow cytometry, antibody titrated on CHO cells expressing cynomolgus BTLA, PE-anti-huFc detection, FL2 GMFI
T2 construct: whole, on cells; also called cyno BTLA; monkey BTLA
T2 sequence: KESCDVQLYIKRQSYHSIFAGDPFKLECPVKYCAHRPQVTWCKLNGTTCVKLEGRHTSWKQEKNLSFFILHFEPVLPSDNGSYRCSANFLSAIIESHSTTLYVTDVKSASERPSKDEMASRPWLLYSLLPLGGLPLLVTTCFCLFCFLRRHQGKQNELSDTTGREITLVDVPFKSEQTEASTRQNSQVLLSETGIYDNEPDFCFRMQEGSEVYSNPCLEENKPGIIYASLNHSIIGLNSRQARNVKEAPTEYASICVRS

T1 sequence (Q7Z6A9 other isoform, or with tags, fused parts or gaps limits assumed): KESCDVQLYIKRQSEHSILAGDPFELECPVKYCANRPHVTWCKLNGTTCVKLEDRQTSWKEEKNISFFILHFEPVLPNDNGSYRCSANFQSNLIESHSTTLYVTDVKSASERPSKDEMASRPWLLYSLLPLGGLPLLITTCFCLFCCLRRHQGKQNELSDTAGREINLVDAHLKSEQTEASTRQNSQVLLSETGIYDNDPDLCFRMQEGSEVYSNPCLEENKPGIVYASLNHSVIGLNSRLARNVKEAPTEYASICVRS

B1: hu Mab8D5 (IgG4 version, fully human monoclonal agonist anti-BTLA antibody) (antibody, V domains shown, not shown: a dimerising Fc or GST)
VH: EVQLVESGGGLVQPGGSLRLSCAASGFTISSYDMHWVRQATGKGLEWVSVIGPAGDTYYPGSVKGRFTISRENAKNSLYLQMNSLRAGDTAVYYCAREGMAAHNYYGMDVWGQGTTVTVSS
VL: not shown
notes: also called hu Mab8D5 G4; 8D5 (G4) agonist
In the case of B1, the EC50 [1] is reported as 12.4 nM and the EC50 (cynomolgus BTLA) is reported as 13.6 nM.

Source: patent US20140017255A1 (E R SQUIBB AND SONS L L C, published 2014)
